Test [1] addresses T1, K562 cells that express human αvβ3 (αvβ3-K562) (Homo sapiens, UniProt P05106+P06756).
T1 construct: expressed in transfected cells; host or cells: K562
The experiment in a line: Cell adhesion assay, αvβ3-K562 cells. It is filed as cell-based. The protocol:
FIG. 5. […] Adhesion assays was performed using αvβ3-K562 (left) or mock transfected cells (right) as described herein. The data is shown as means+/−SEM of triplicate experiments.
CHO or K562 cells expressing different recombinant integrins were previously known and available (Zhang et al. 1998; Tarui et al. 2006). Labeling of proteins with FITC or […] was performed according to manufacturers' instructions. Flow cytometry was performed as described above. Also, adhesion assays as described above were used to confirm the findings using flow cytometry.
(§1) Cell adhesion and soluble integrin binding assays were performed as described previously (Mori, et al., 2008). NRG1α (175-241) was immobilized to wells of 96-well microtiter plate overnight at 4° C. in 0.1 M carbonate buffer, pH 2 9.4. Remaining protein binding sites were blocked by incubating with 200 μl of 0.1% BSA in PBS for 60 min at room temperature. Wells were then incubated with soluble integrin αvβ3 in 50 μl in Hepes-Tyrode's buffer supplemented with 1 mM Mn2+ at room temperature for 60 min. After rinsing the wells with the same buffer, bound integrins were determined by horseradish peroxidase (HRP)-conjugated anti-His tag mouse IgG and substrate 3,3′,5,5′-tetramethylbenzidine of HRP.

The target in another test is T2, integrin αvβ3 (Homo sapiens, UniProt P05106+P06756).
T2 construct: Soluble recombinant integrin αvβ3 (5 μg/ml) was added to the wells; made in house
T2 sequence (P06756 31-992 limits assumed): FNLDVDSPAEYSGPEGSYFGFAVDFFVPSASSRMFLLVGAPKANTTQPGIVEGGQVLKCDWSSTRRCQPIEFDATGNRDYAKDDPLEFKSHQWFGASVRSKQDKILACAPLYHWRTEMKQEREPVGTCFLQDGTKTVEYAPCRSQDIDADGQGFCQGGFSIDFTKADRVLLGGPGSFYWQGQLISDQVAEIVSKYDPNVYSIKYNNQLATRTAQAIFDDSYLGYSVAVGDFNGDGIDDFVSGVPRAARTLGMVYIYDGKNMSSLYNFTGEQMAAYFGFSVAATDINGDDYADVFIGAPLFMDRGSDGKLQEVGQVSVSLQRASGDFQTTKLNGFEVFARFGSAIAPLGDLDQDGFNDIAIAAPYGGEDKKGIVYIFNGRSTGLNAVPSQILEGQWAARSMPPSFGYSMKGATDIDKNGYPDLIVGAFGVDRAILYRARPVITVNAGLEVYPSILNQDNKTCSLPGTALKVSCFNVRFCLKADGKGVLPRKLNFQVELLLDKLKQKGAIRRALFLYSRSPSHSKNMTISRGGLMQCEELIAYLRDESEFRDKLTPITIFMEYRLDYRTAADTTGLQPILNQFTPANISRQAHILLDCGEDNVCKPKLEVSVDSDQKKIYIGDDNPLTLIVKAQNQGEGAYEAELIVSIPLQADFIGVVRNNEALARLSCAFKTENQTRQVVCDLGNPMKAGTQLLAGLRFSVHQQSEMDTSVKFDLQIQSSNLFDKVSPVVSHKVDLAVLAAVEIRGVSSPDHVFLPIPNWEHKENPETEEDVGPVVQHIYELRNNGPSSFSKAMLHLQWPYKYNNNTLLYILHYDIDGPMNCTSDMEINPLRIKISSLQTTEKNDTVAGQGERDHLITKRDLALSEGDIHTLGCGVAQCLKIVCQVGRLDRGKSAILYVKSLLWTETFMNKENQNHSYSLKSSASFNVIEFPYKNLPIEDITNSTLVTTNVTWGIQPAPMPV
T2 sequence (P05106 27-718 limits assumed): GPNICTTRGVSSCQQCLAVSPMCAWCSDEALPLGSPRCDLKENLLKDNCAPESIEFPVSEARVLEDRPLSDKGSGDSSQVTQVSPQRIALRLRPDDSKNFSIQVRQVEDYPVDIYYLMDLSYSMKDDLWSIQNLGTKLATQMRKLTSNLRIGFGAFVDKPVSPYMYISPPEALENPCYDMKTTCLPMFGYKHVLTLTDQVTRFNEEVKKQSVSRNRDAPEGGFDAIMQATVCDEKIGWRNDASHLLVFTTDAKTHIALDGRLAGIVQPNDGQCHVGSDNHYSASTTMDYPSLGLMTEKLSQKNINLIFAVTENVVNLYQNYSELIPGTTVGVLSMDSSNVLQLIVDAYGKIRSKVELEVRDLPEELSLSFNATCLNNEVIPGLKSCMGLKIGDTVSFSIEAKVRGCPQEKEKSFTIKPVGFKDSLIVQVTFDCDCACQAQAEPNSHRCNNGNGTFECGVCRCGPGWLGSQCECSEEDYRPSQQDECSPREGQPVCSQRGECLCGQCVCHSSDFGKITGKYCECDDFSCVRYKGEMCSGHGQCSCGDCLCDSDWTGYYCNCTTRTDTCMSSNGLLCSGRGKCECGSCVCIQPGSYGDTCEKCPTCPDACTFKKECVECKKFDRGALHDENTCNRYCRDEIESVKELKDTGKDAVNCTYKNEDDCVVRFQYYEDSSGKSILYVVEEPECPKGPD
Put plainly: ELISA-type binding of soluble recombinant integrin αvβ3 to immobilized NRG1 fragments. The conditions noted are these: soluble αvβ3, 1 mM Mn2+, room temperature. The protocol: FIG. 1. […] The isolated EGF-like domain of Wt NRG1 was immobilized to wells of 96-well titer plates. The concentrations of the coating solution are shown. Soluble recombinant integrin αvβ3 (5 μg/ml) was added to the wells in the presence of 1 mM Mn^2+ and incubated for 2 h at room temperature. After washing the wells bound αvβ3 was determined by using anti-β3 antibody and HRP-conjugated anti-mouse IgG. The data is shown as means+/−SEM of triplicate experiments. FIG. 7. […] Wt GST-NRG1 (175-222) and the 2KE mutant of GST-NRG1 (175-222) were immobilized to wells of 96-well titer plates. The concentrations of the coating solution are shown. Soluble recombinant integrin αvβ3 (5 μg/ml) was added to the wells in the presence of 1 mM Mn^2+ and incubated for 2 h at room temperature. After washing, the wells bound αvβ3 was determined by using anti-β3 antibody and HRP-conjugated anti-mouse IgG. The data are shown as means+/−SD of triplicate experiments. […] Direct αvβ3-NRG (175-222) interaction: It has been well established that the EGF-like domain of the NRGs is sufficient to specifically activate ErbB receptors and to induce cellular responses in culture. To generate GST-NRG1 EGF-like domain fusion protein, the cDNA fragment of the EGF-like domain of NRG1 was amplified by PCR and subcloned into PGEX-2T vector to generate GST-NRG1 EGF-like domain fusion protein (designated GST-NRG1 (175-222)) in E. coli BL21. The fusion protein was purified in glutathione-affinity chromatography. The affinity resin was extensively washed with 1% Triton X-114 to remove endotoxin before eluting the protein. It was tested, in the present invention, whether soluble recombinant integrin αvβ3 binds to GST-NRG1 (175-222) that is immobilized to plastic wells (ELISA-type assay). […] Cell adhesion and soluble integrin binding assays were performed as described previously (Mori, et al., 2008). NRG1α (175-241) was immobilized to wells of 96-well microtiter plate overnight at 4° C. in 0.1 M carbonate buffer, pH 2 9.4. Remaining protein binding sites were blocked by incubating with 200 μl of 0.1% BSA in PBS for 60 min at room temperature. Wells were then incubated with soluble integrin αvβ3 in 50 μl in Hepes-Tyrode's buffer supplemented with 1 mM Mn2+ at room temperature for 60 min. After rinsing the wells with the same buffer, bound integrins were determined by horseradish peroxidase (HRP)-conjugated anti-His tag mouse IgG and substrate 3,3′,5,5′-tetramethylbenzidine of HRP.
For orientation: ELISA stands for enzyme-linked immunosorbent assay.

Test [2] concerns the target T3, CHO cells expressing β1-3-1 (β1-3-1-CHO cells) (Homo sapiens, UniProt P05556, DEL209-212/INS207YDMKT).
T3 construct: expressed in transfected cells; host or cells: CHO
The experiment in a line: Cell adhesion assay, β1-3-1-CHO cells. Type of test: cell-based. On the procedure:
FIG. 3. Adhesion of CHO cells that express human β1 (β1-CHO) or β1-3-1 (β1-3-1-CHO) to wt NRG1 (175-222). The β1-3-1 mutation changes the specificity of β1 integrins to that of β3 integrins. Cell adhesion was performed as described herein. β1-3-1-CHO cells adhered to wt NRG1 (175-222) and this binding was blocked by anti-human β1 antibody AIIB2, but not by purified mouse IgG (mIgG). BSA: BSA as a control was coated instead of NRG1 (175-222).
FIG. 6. […] Adhesion assays was performed using β1-3-1-CHO cells as described herein. Data are shown as means+/−SEM of triplicate experiments.
The β1-3-1 mutation: To determine if NRG1 (175-222) binds to αvβ3 like other known αvβ3 ligands (e.g., vitronectin and fibrinogen), a mutant of β1 having a ligand specificity of β3 (Takagi et al. 1997) was used. […] It was shown that when a disulfide-linked five-residue sequence of β1 I-like domain (residues 177-183) of αvβ1 is switched with a corresponding sequence in β3 integrin (designated the β1-3-1 mutant), ligand-binding specificity of the mutated integrin αvβ1-3-1 is altered to that of αvβ3 (Takagi et al. 1997). […] The adhesion of β1-3-1-CHO cells to NRG1 (175-222) was blocked anti-β1 antibody AIIB2 (FIG. 3). […] These findings indicate that NRG1 (175-222) binds to the ligand-binding site of αvβ3, and that the specificity loop plays a role in NRG1 binding to αvβ3.
as §1

Where a chain is given by its changes, count along the chain named. “Also recorded” adds a separate entry of the source. Read-outs that look alike come from different tables or passages of the source.

T3 sequence (P05556 with tags, fused parts or gaps INS207YDMKT/DEL209-212): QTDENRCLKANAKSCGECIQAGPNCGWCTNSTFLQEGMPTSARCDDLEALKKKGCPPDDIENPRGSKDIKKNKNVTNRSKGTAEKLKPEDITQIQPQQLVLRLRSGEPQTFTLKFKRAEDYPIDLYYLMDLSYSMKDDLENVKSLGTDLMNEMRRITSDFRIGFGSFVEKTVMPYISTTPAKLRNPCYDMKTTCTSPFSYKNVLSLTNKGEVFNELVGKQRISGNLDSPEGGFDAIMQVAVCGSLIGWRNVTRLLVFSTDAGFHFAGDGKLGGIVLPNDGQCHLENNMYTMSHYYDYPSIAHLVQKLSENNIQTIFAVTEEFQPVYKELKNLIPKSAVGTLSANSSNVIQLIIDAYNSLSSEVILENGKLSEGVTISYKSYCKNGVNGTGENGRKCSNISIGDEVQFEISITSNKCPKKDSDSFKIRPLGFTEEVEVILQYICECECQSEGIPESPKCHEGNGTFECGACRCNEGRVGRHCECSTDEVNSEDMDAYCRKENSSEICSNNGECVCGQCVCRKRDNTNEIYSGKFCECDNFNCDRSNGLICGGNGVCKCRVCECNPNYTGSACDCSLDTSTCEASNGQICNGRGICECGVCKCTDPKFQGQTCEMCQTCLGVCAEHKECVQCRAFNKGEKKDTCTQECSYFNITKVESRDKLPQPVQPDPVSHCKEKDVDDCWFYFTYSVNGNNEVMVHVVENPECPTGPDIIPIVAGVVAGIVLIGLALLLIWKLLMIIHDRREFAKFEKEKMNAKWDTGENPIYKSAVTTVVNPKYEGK
T1 sequence (P06756 31-1048): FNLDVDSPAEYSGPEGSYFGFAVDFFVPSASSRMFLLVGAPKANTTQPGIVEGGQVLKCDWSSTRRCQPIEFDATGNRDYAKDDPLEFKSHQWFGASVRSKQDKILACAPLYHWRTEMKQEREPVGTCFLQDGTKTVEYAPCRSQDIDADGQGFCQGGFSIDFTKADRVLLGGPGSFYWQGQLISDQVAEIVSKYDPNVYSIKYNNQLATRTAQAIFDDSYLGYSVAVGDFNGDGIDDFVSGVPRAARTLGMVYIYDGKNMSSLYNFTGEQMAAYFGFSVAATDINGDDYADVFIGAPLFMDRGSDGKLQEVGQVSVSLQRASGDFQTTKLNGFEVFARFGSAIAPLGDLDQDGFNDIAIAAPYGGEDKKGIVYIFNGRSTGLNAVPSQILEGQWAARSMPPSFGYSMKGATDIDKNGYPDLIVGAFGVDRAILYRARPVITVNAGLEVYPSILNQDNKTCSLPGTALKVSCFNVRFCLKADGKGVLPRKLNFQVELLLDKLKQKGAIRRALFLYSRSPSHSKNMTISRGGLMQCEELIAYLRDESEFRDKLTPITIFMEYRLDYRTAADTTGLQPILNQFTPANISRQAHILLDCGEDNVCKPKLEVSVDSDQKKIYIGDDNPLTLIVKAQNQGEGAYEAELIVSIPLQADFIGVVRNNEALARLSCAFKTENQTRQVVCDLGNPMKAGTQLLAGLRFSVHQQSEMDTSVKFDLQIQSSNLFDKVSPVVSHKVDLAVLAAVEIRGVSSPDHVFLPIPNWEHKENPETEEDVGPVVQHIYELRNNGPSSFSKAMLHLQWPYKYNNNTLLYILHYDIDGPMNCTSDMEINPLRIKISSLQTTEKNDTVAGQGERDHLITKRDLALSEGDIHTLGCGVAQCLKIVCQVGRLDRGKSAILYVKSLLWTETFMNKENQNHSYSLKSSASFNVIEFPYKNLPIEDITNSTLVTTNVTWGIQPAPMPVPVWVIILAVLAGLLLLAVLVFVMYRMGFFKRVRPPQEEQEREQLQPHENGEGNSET
T1 sequence (P05106 27-788): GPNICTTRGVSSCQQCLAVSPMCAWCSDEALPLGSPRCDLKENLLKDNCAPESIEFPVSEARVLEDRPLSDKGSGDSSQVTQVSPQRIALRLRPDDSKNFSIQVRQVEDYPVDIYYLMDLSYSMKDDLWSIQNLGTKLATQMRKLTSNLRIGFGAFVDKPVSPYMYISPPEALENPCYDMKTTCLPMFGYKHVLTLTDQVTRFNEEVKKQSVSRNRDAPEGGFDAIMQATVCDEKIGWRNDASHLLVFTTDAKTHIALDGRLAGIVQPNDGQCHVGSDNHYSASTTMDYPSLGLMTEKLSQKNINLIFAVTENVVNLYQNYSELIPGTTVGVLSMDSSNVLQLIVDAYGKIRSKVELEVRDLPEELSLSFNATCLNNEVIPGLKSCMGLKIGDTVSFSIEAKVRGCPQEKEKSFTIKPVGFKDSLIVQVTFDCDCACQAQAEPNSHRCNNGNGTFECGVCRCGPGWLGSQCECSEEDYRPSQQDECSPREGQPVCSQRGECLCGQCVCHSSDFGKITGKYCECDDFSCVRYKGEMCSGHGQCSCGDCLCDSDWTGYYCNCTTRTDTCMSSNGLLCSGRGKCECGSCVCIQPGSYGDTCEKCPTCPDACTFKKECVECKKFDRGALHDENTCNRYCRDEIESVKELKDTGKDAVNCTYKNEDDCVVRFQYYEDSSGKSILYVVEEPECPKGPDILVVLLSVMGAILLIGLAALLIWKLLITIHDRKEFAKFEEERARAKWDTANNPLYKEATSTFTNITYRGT

Regarding “3KE (175-222): NRG1 (175-222) with Lys181/Lys185/Lys187 mutated to Glu; GTSHLVECAEEEETFCVNGGECFMVKDLSNPSRYLCKCQPGFTGARCT (SEQ ID NO:11) (integrin-binding site within human neuregulin, 3KE mutant, short version)”, the “Adhesion of αvβ3-K562 cells to the immobilized protein” value (“Adhesion of αvβ3-K562 cells” below) in test [1] is recorded as “did not bind; also recorded: defective in binding to αvβ3-K562 cells”. For the same molecule, the “Binding of soluble recombinant integrin αvβ3 to the immobilized protein” value (“Binding” for short) in the test with integrin αvβ3 is “bound to the 3KE (175-222) mutant (isolated EGF-like domain) in a dose-dependent manner; also recorded: much lower affinity to αvβ3”. Besides, in test [2], the “Adhesion of β1-3-1-CHO cells to the immobilized protein” value (“Adhesion of β1-3-1-CHO cells” below) is listed as “defective in binding to β1-3-1 integrins”.

With “wt NRG1 (175-222): wild type human neuregulin 1 fragment, EGF-like domain, residues 175-222 of SEQ ID NO:4 (SEQ ID NO:3) (GTSHLVKCAEKEKTFCVNGGECFMVKDLSNPSRYLCKCQPGFTGARCT; integrin-binding site within human neuregulin 1 EGF-like region and portion of alpha domain, residues 175-222 of human neuregulin 1 alpha) [reference compound]”, the figures for the “Adhesion of αvβ3-K562 cells” value in test [1] and in test [1] (listed as NRG1 (175-222)) were “bound to wt NRG1 (175-222)” and “adhered in a dose-dependent manner”, respectively. Besides, the “Binding” value with integrin αvβ3 (listed as NRG (175-222)) is on record as “bound to recombinant soluble αvβ3”. For the same molecule, the “Adhesion of β1-3-1-CHO cells” value in test [2] is “bound to NRG1 (175-222)”.

B1: WT NRG1α (175-241): wild type human neuregulin 1 fragment, residues 175-241 of SEQ ID NO:4 (SEQ ID NO:5), entire EGF-like motif and α domain (protein)
chain: GTSHLVKCAEKEKTFCVNGGECFMVKDLSNPSRYLCKCQPGFTGARCTENVPMKVQNQEKAEELYQK
modifications: integrin-binding site within human neuregulin, residues 175-241of human neuregulin 1alpha, long version
Consider B1, for which the results for the “Adhesion of αvβ3-K562 cells” value in test [1] (listed as NRG1α (175-241)) and in test [1] (listed as wt NRG1α (175-241)) were “adhered in a dose-dependent manner” and “bound to wt NRG1α (175-241)”, respectively. Moreover, the “Binding” value in the test with integrin αvβ3 is listed as “bound to GST-NRG1α (175-241) (isolated EGF-like domain) in a dose-dependent manner”. The “Adhesion of β1-3-1-CHO cells” value in test [2] (listed as NRG1α (175-241)) is “bound to NRG1α (175-241)”; in test [2] (listed as wt NRG1α (175-241)), “bound to wt NRG1α (175-241)”.

B2: 3KE (175-241): NRG1α (175-241) with Lys181/Lys185/Lys187 mutated to Glu, SEQ ID NO:6 (3KE, long version) (protein)
chain: B1 chain with K7E, K11E, K13E
modifications: integrin-binding site within human neuregulin, residues 175-241of human neuregulin 1alpha, long version, 3KE mutant
Regarding B2, the “Adhesion of αvβ3-K562 cells” value in test [1] is given as “little or no adhesion”. For the same molecule, the “Adhesion of β1-3-1-CHO cells” value in test [2] is reported as “little or no adhesion”.

Source of the values: patent US20110212108A1, “NEUREGULIN/ERBB SIGNALING AND INTEGRIN” (THE REGENTS OF THE UNIVERSITY OF CALIFORNIA, priority 2008, published 2011).
